Experimental data reported in the DeepSol protein solubility set.

Assay: soluble on expression in E. coli; label from the status in PepcDB or PDB records
In the case of “MGIGSKILENNIQKSISLGFYHSHSELRKSFYEFFKSKNHEILRSSSVIPDENDGTLLFTNAGMNQFKPLILSSTESRRVANIQKCIRAGGKHNDLDDVGKDLHHQTFFEMMGNWSFNDAFSKEEACRYAWEYLVEILGINADRLYVSYFGGIEKLGLPEDRECREIWKRIGVSSNRILPFVAENFWEMGAAGPCGPCTEIHYDRIGGRDASRLVNIDDSVVEIWNIVFMSSVRDSCGQIRHLGKNHIDTGMGFERLLSVVQNKTSNFDTDVFTPILEKTSELAKKQYTGSLDSRQDATFRLVADHIRAATVAISDGAVPDGTGCGFIVRKMMRRAFLQGISKLGIERYAMSELVPVVASTMKEVYPEIHDTSTHIRKIFNDEEAQFWKTVDKAKKMFDSVAAESKSPIISGRKAFNLFETHGLPLAVTVELARNIGREVDETEFERCRLEAQKVSQKASQFKLPISADDFPSHSDKEKYSYVFRNGKYEFPQVKTRILQVYKDQQKAESLEANDRGFLVLEECQFYGEQGGQTSDTGHLLIDGREVFEVENAKKIAGGAVTVLFGRALLPIRRDLRVEQKLDETRREGVMRAHSATHLLNWALQKLGVGSGQKGSSVDCDRFRFDYSTGDEDLSKEQRTELLIKCEMKMREFIQNGGFTEIIETSLEEAKKIENLQSDVKEDRIGGASVRVVALGSGADVPVECCSGTHIHDVRVIDDVAIMSDKSMGQRLRRIIVLTGKEAAACRNYTKSIYEDLRSTDPKERSKTGKNIDWKRVPIADQARISILLKQKK”, the “soluble on expression in E. coli” value is reported as “not soluble”.
In the case of “MMIVIKTAIPDVLILEPKVFGDERGFFFESYNQQTFEELIGRKVTFVQDNHSKSKKNVLRGLHFQRGENAQGKLVRCAVGEVFDVAVDIRKESPTFGQWVGVNLSAENKRQLWIPEGFAHGFVTLSEYAEFLYKATNYYSPSSEGSILWNDEAIGIEWPFSQLPELSAKDAAAPLLDQALLTE”, the “soluble on expression in E. coli” value is reported as “soluble”.
For “MDSEEPPNVRVACSGDIDEVVRLMHDAAAWMSAKGTPAWDVARIDRTFAETFVLRSELLVASCSDGIVGCCTLSAEDPEFWPDALKGEAAYLHKLAVRRTHAGRGVSSALIEACRHAARTQGCAKLRLDCHPNLRGLYERLGFTHVDTFNPGWDPTFIAERLELEI”, the “soluble on expression in E. coli” value was “not soluble”.
In the case of “MNTLLLDKGEQQVHLNLKYANRHGLIAGATGTGKTVSLMSLAEGFSRQGVPVFITDIKGDISGLGVAGTPNDKLLQRAAEIGVEGYQTEANPVVFWDLAGIQGHPLRTTVSEMGPTLLGRILELNDTQSSILDIVFQLADDQGLLLLDLDDLRAMLNLVADERKDISAKYGLISAQSLAAIQRSVLGLERDGGKDFFGEPALQLEDLMRTNLQGRGIINLLAANKLILTPNLYSSFLLWLLSELFENLPEVGDLDKPKLVFFIDEAHLLFEGCPASLLKRIEQIMRLIRSKGVGVYFCSQFPDDIPNEILGQLGNRIQHALRAYTPRDQKAVKTAAETFVSNPKLVVSEVISQLAVGEALVSTLAEKGVPTMVERTLIAPPRCRMGPANPEELTAIRALSPIGGKYDTLINRESAYERLNQRHTDETNGVNTAQPAANEAEQGWLSELIFGNKRRQGLAETLSKQAARTVGNQLGKQILRGLLGGILGKSTRR”, the “soluble on expression in E. coli” value is reported as “not soluble”.
For “MGSSHHHHHHSSGLVPRGSHMGLQDYQRLHKESIEDPAKFFGSKATQFLNWSKPFDKVFIPDPKTGRPSFQNNAWFLNGQLNACYNCVDRHALKTPNKKAIIFEGDEPGQGYSITYKELLEEVCQVAQVLTYSMGVRKGDTVAVYMPMVPEAIITLLAISRIGAIHSVVFAGFSSNSLRDRINDGDSKVVITTDESNRGGKVIETKRIVDDALRETPGVRHVLVYRKTNNPSVAFHAPRDLDWATEKKKYKTYYPCTPVDSEDPLFLLYTSGSTGAPKGVQHSTAGYLLGALLTMRYTFDTHQEDVFFTAGDIGWITGHTYVVYGPLLYGCATLVFEGTPAYPNYSRYWDIIDEHKVTQFYVAPTALRLLKRAGDSYIENHSLKSLRCLGSVGEPIAAEVWEWYSEKIGKNEIPIVDTYWQTESGSHLVTPLAGGVTPMKPGSASFPFFGIDAVVLDPNTGEELNTSHAEGVLAVKAAWPSFARTIWKNHDRYLDTYLNPYPGYYFTGDGAAKDKDGYIWILGRVDDVVNVSGHRLSTAEIEAAIIEDPIVAECAVVGFNDDLTGQAVAAFVVLKNKSSWSTATDDELQDIKKHLVFTVRKDIGPFAAPKLIILVDDLPKTRSGKIMRRILRKILAGESDQLGDVSTLSNPGIVRHLIDSVKL”, the “soluble on expression in E. coli” value was “soluble”.
With “MVENVKIIRKKIKNMYLVVNPDCSVVVKAPVHVSDEYINSFIKKKESWIKKHLENFESLNSKSVAKKYIDGELFKYLGNEYILKVYPSKKEYLEISDNFFNLYVLETNDFEKKKKIIEKFYRKRAEIELFEIFKSNYKVVTEKMPDFSVRKMKKRWGSCSFHKNKIILNERLIEKSKDCIEYVVFHELAHLRYPNHSKDFYNYLTELMPEWKVKKLKLNERHLEHHHHHH” the “soluble on expression in E. coli” value was “soluble”.
With “MSLTQRITMEDIARQSGVSLATVSLVLRDKPGINDETRRRVLDIARDLGYRKRLNHEKLVSQSLHNAGVIVKASIGDDSPLTNPFYAPIVAGIEAACRKMHINLMYATVPVDMDNHPQEMPRLLSEDHLDGVLLVGAFADATITKLLQREGIPAVLVDGYSHEHVYDSVVSDNFRAAYEAVSYLISYGHRHIGLIGTTKEAYPSIAERRKGYIQALTDHGIHDQYFGDCLLTMHEGSDTSSILLQRHPQITALFCANDMMAIGATQAARALHRQIPQDLSIIGFDNIDLAQHVAPALTTMHVDKVSMGRFAVQLLANRAEYPDQAPATVSLRPRLLERQSVQREGHHHHHH” the “soluble on expression in E. coli” value was “soluble”.
In the case of “MSLAPLVAMVGGGQLARMTHQAAIALGQNLRVLVTSADDPAAQVTPNVVIGSHTDLAALRRVAAGADVLTFDHEHVPNELLEKLVADGVNVAPSPQALVHAQDKLVMRQRLAAAGVAVPRYAGIKDPDEIDVFAARVDAPIVVKAVRGGYDGRGVRMARDVADARDFARECLADGVAVLVEERVDLRRELSALVARSPFGQGAAWPVVQTVQRDGTCVLVIAPAPALPDDLATAAQRLALQLADELGVVGVLAVELFETTDGALLVNELAMRPHNSGHWTIDGARTSQFEQHLRAVLDYPLGDSDAVVPVTVMANVLGAAQPPAMSVDERLHHLFARMPDARVHLYGKAERPGRKVGHINFLGSDVAQLCERAELAAHWLSHGRWTDGWDPHRASDDAVGVPPACGGRSDEEERREGHHHHHH”, the “soluble on expression in E. coli” value is reported as “soluble”.
In the case of “MGHSQSYDLRNPEGGEKTPVRGVRRVSREHQTDAQFSTETAEPFDFREDELRDRIRREQLRKREVELETLRIRQHESREPIIDAYRQNQPAPQGNLYNEFNHYDSMKHASPSDPATYFALKPMTEVNEGRQFSIPTSSTRRYDQVPIDPSPELQRREVPSKQSPPNYPKRSSVFGGRVSPLPRQSEVDPHPMPRYIPPMSPSNPIDDVPPTHVSELHAEKRMIVGIDDELQPEKNNVTYVTVATAAIDNELLHRHPEVGRHPVYVLPAQTSYGASAKRRSSDDEAKNVLPPQNCTVEHCTHVAVNDGSPVVIRKRASQDSIRDKENRLTIPINEDDTENVGEGTNYQNVSKKCFEERLHYDSYMPTLSLRQRPVVSFYDKLH”, the “soluble on expression in E. coli” value is reported as “not soluble”.
In the case of “MGSDKIHHHHHHMSHGAIKHHRHRGRVMYHLRVPESAEDLDAYYQFRWEMLRKPLHQPLGSERDAYDALAHHQTVVDEQGRLVAIGRLSINADNEAAIRFLAVHPDLRGKGLGTLLAITLESVARQEGVKRVVCSAREDAMDFFSKLGFVNQGEISAPQTTPVRHFLMIKPVATLDDILHRADWCGQLQQAWYDHIPLSEKMGVRISQYTGKKFITTMPEAGNQNPHHTLFAGSMFSLATLTGWGLIWLLLRERHLGGTIILADAHIRYSTPVSGRPSAIADLGSLSGDLDRLARGRKARVQLNVELFGDDNKGALFEGVYIVLPAQPDAPLEEGGSEVD”, the “soluble on expression in E. coli” value is reported as “not soluble”.
With “MANLGMTGVADGNNSEQTYLGQINYQDQTITKASAKKLNREIDLQRASQLTLWAMPMVGMYQSYNSTIALFDLQEGDAPIIGLHEGYDGVYPFLTANVTTPYTISLVDLSETGPYVVNIPAGSIFGVANNAWQEPIKEIGSGNKETLLFVGPGQEYPKDFDGEVIQSDTNQILYFYRVLGVGAEAEKLKTAVTAYKLSDVANPPQVKFVIYKPKASDADVTIATQPRGMAYWEVVNQYIQNEPMADRDRFFYAWLKDLGIEKGKAFNPTPYQKEILLEGVNTGMAMAQSLAFNKTKKKFSSSLYGSDSGWEGVLAGMDPKIDLDTYSMINERTAYTYEAVTTSAGMIVENPGHGSAYIGSYYDADGNALMGGKNYTLHIEPNPPAANFWSITVYDIKNRLIIRNEIKRSDLSSRSESLVMNSDGSVDLYFGPEAPEGKEGNWIQSNDGESYFMYLRLYGPEQEYFDQTYPMNKIDKTKLEHHHHHH” the “soluble on expression in E. coli” value was “not soluble”.
For “GPGSMTANSKPARFLALAAAKQGTTANVAFNALSVYAKMELSKQTNKMLKVHAATTPLVALIQKRTGIKAAAEAVRQTQTAAKATATVSSYDNSEINPQYIGADIAAKMEQMRKHESYGKIKKDGHTLSAPSTAKFPTAEDSTLRKITISVAVQVLCTGSSNSKWQISGKLEG”, the “soluble on expression in E. coli” value was “soluble”.
For “MGSDKIHHHHHHMVREPASTLLPPTSPATPAPHRLLIGRRGMVPTGANVIWKIQSGLVRSSTWGEEGDMISLGLWGPGDLIGRPLSCLDPYELECLTAVEVVAVSDPALESHESLVRSLRYTERLLSITRLRRAEAKLASLLGWIGERFGQPGATGWEIDLRRIPLTHQVIAELSGSTRVTTTRLLGEFRQAGRIHRRDRALIVRYPETLYPPARLSA”, the “soluble on expression in E. coli” value was “not soluble”.
In the case of “MSLRFIDKLYQANLGKLTAGISPAALGTAYYSWFAQLLQSPGSMLRLAYYPLLHANDYLSNLFKYDKPRDGKDVRFHTENWSYYPWRLWAEQFLQFEDWCLQASSKVPGIPLHVKRTVTFSTRQILDALSPSNFVLTNPDLLQETIRSNGQNLIRGTELAFQDFVEKITGSPPAGVENFIPGKQVAVTEGKVVYSNHLIELIQYTPQTEKVYKEGHHHHHH”, the “soluble on expression in E. coli” value is reported as “soluble”.
For “MADRNLRDLLAPWVAGLPARELREMTLDSRVAAAGDLFVAVVGHQADGRRYIPQAIAQGVAAIIAEAKDEASDGEIREMHGVPVVYLSQLNERLSALAGRFYHEPSENMRLVAVTGTNGKTTTTQLLAQWSQLLGETSAVMGTVGNGLLGKVIPTENTTGSAVDVQHVLASLVAQGATFGAMEVSSHGLVQHRVAALKFAASVFTNLSRDHLDYHGDMAHYEAAKWMLYSTHHHGQAIVNADDEVGRRWLASLPDAVAVSMEGHINPNCHGRWLKAEAVEYHDRGATIRFASSWGEGEIESRLMGAFNVSNLLLALATLLALGYPLTDLLKTAARLQPVCGRMEVFTAPGKPTVVVDYAHTPDALEKALQAARLHCAGKLWCVFGCGGDRDKGKRPLMGAIAEEFADIVVVTDDNPRTEEPRAIINDILAGMLDAGQVRVMEGRAEAVTNAIMQAKDNDVVLIAGKGHEDYQIVGTQRLDYSDRVTAARLLGVIA”, the “soluble on expression in E. coli” value was “not soluble”.
With “MTRPPLPPFTAETAAEKVRLAENGWNNRSADVVTPAYSDDSRWRNRAEFVTGHDDIHAFLTRKWDKELDYRLIKELWAWSGNRIAVRYAYEWHDDSGNWFRSYGNENWEFDEDGRMSARHTSLNDLPITEDERLFHWPLGPRPDGHPGLTDLGLLEHHHHHH” the “soluble on expression in E. coli” value was “not soluble”.
